{"source": "paper PMC2570560", "about": "“Subunit Mobility and the Chaperone Activity of Recombinant αB-Crystallin” (The Open Biochemistry Journal, 2008)", "proteins": {"B1": {"name": "recombinant human αB-crystallin (natural protein, UniProt P02511 1-175, looked up)", "chain": "MDIAIHHPWIRRPFFPFHSPSRLFDQFFGEHLLESDLFPTSTSLSPFYLRPPSFLRAPSWFDTGLSEMRLEKDRFSVNLDVKHFSPEELKVKVLGDVIEVHGKHEERQDEHGFISREFHRKYRIPADVDPLTITSSLSSDGVLTVNGPRKQVSGPERTIPITREEKPAVTAAPKK", "notes": "also called native αB-crystallin; source: E. coli BL21(DE3), purified (ammonium sulfate fractionation, Q-Sepharose anion exchange)"}}, "molecular_target": "the molecule itself", "assay": "cross-linking; 0.05 mM αB-crystallin with 0.3 mM glutaraldehyde in PBS (20 mM phosphate buffer, 150 mM NaCl, pH 7.2), 20 °C, 30 h; dialysed against PBS; examined by SDS-PAGE"}
{"protein": "B1", "values": [{"measurement": "binding result", "result": "binds"}]}
